Experimental data as given in patent US11427869B2, “T cell balance gene expression, compositions of matters and methods of use thereof” (THE BROAD INSTITUTE, INC., priority 2015, dated 2022).

Tested on: Th17 cells
Experiment: qPCR of Cd5l expression in differentiated T cells
Assay type: cell-based, mouse
Settings: naïve T cells differentiated with TGF-β1+IL-6 for 48h, expanded in IL-23 in fresh media, 72h
Procedure: FIG. 16A-16I. CD5L is a candidate regulator of Th17 cell functional states. (FIG. 16A-FIG. 16C) Single-cell RNA-seq analysis. (FIG. 16A) Cd5l expression of single-cells from in-vitro generated and in-vivo sorted Th17 cells (IL-17.GFP+) from mice at the peak of EAE. […] (FIG. 16D-FIG. 16F) Validation of CD5L expression in vitro. Naïve T cells (CD4+CD62L+CD44−CD25−) were sorted and differentiated as indicated and analyzed by qPCR for CD5L expression at 48h (D) and 72h (E) and by flow cytometry at 48h (F); (E) IL-23 or control was added at 48h in fresh media. (FIG. 16G-FIG. 16I) Validation of Cd5l expression in vivo. (G,H) IL-17A.GFP reporter mice were immunized to induce EAE. Cells were sorted from spleen (G) and CNS (H) at the peak of disease. Cd5l and Il17a expression are measured by qPCR. Figure shown is representative data of three technical replicates from two independent experiments. (I) Cells were sorted from the gut of naïve mice and the number of RNA transcripts measured by nanostring nCounter platform.
Next, Applicants explored whether CD5L expression is associated with less pathogenic Th17 cells in vivo. Applicants analyzed Th17 cells isolated from mice induced with EAE. […] Next, Applicants analyzed Th17 cells from mesenteric lymph nodes (mLN) and lamina propria (LP) of naïve mice, where Th17 cells contribute to tissue homeostasis and mucosal barrier function. […]

B1: IL-23: recombinant mouse IL-23 (R&D), 20 ng/ml (protein, UniProt Q9EQ14 22-196; P43432 23-335, looked up)
Interleukin-23 subunit alpha: VPRSSSPDWAQCQQLSRNLCMLAWNAHAPAGHMNLLREEEDEETKNNVPRIQCEDGCDPQGLKDNSQFCLQRIRQGLAFYKHLLDSDIFKGEPALLPDSPMEQLHTSLLGLSQLLQPEDHPRETQQMPSLSSSQQWQRPLLRSKILRSLQAFLAIAARVFAHGAATLTEPLVPTA
Interleukin-12 subunit beta: MWELEKDVYVVEVDWTPDAPGETVNLTCDTPEEDDITWTSDQRHGVIGSGKTLTITVKEFLDAGQYTCHKGGETLSHSHLLLHKKENGIWSTEILKNFKNKTFLKCEAPNYSGRFTCSWLVQRNMDLKFNIKSSSSSPDSRAVTCGMASLSAEKVTLDQRDYEKYSVSCQEDVTCPTAEETLPIELALEARQQNKYENYSTSFFIRDIIKPDPPKNLQMKPLKNSQVEVSWEYPDSWSTPHSYFSLKFFVRIQRKKEKMKETEEGCNQKGAFLVEKTSTEVQCKGGNVCVQAQDRYYNSSCSKWACVPCRVRS
In the case of B1, the “Cd5l expression (qPCR)” value is reported as “suppressed”.
